The target of experiment [1] is cynomolgus monkey CD32a (cynomolgus monkey).
Experiment [2] has as its target cynomolgus monkey CD32b (cynomolgus monkey).
The target of experiment [3] is T1, cynomolgus monkey CD64 (cynomolgus monkey, UniProt A0A2K5U901 33-309).
The target of experiment [4] is cynomolgus monkey CD32a (cynomolgus monkey). The source holds these as a separate data set.
For experiment [5], the target named is cynomolgus monkey CD32b (cynomolgus monkey). This is another data set of the same source.
Experiment [6] has as its target T1, cynomolgus monkey CD64. The source holds these as a separate data set.

Data on three molecules can be found in patent publication US20250179183A1 (BIOMOLECULAR, published 2025).

Like-named read-outs stand apart in the source and are kept apart here.

A word on the Kd: it is the constant that tells how readily two partners part at equilibrium.

T1 sequence (A0A2K5U901 entry or part of it limits assumed, form in doubt): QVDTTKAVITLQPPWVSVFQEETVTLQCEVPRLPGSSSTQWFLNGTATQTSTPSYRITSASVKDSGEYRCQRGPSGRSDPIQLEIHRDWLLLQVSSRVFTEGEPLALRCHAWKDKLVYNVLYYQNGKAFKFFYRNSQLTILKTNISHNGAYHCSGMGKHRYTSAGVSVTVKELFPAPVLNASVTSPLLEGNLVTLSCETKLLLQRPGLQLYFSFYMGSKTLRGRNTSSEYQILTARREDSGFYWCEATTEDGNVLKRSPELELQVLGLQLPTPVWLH

B1: HB2198 (bispecific antibody, human IgG1, kappa)
heavy 1: QVQLVQSGGGVVQPGRSLRLSCAASGVSLPDYGVSWVRKAPGKGLEWVAVIWGSETTYYNSALKSRFTISRDNSKNTLYLQMSSLRAEDTAVYYCAKHYYYGGSFAMDYWGQGTLVTVSSASTKGPSVFPLAPSSKSTSGGTAALGCLVKDYFPEPVTVSWNSGALTSGVHTFPAVLQSSGLYSLESVVTVPSSSLGTQTYICNVNHKPSNTKVDKKVEPKSCTDWSPYADQSIKVRISLKSALGDKAYEWNDNEMYLFRSSVAYAMRQYFLKVKNQMILFGEEDVRVANLKPRISFNFFVTAPKNVSDIIPRTEVEKAIRMSRSRINDAFRLNDNSLEFLGIQPTLGPPNQPPVSTSTSPTRSMAPGAVHLPQPVSTRDKTHTCPPCPAPELLGGPDVFLFPPKPKDTLMISRTPEVTCVVVDVSHEDPEVKFNWYVDGVEVHNAKTKPREEQYNSTYRVVSVLTVLHQDWLNGKEYKCKVSNKALPAPEEKTISKAKGQPREPQVCTLPPSRDELTKNQVSLSCAVKGFYPSDIAVEWESNGQPENNYKTTPPVLDSDGSFFLVSKLTVDKSRWQQGNVFSCSVMHEALHNRFTQKSLSLSPG
heavy 2: QIVLSQSPAILSASPGEKVTMTCRASSSVSYIHWFQKKPGSSPKPWIYATSNLASGVPVRFSGSGSGTSYSLTISRVEAEDAATYYCQQWTSNPPTFGGGTKVEIKSSASTKGPSVFPLAPSSKSTSGGTAALGCLVKDYFPEPVTVSWNSGALTSGVHTFPAVLQSSGLYSLKSVVTVPSSSLGTQTYICNVNHKPSNTKVDKKVEPKSCDKTHTCPPCPAPELLGGPDVFLFPPKPKDTLMISRTPEVTCVVVDVSHEDPEVKFNWYVDGVEVHNAKTKPREEQYNSTYRVVSVLTVLHQDWLNGKEYKCKVSNKALPAPEEKTISKAKGQPREPQVYTLPPCRDELTKNQVSLWCLVKGFYPSDIAVEWESNGQPENNYKTTPPVLDSDGSFFLYSKLTVDKSRWQQGNVFSCSVMHEALHNHYTQKSLSLSPG
light 1: DIQMTQSPSSLSASVGDRVTITCRASQDISKYLNWYQEKPGKAIKLLIYHTSRLHSGVPSRFSGSGSGTDFTLTISSLQPEDFATYYCQQGATLPYTFGPGTKLEIKRTVAAPSVFIFPPSDEQLKSGTASVKCLLNNFYPREAKVQWKVDNALQSGNSQESVTEQDSKDSTYSLSSTLTLSKADYEKHKVYACEVTHQGLSSPVTKSFNRGEC
light 2: QVQLQQPGAELVKPGASVKMSCKASGYTFTSYNMHWVKETPGRGLEWIGAIYPGNGDTSYNQKFKGKATLTADKSSSTAYMQLSSLTSEDSAVYYCARSTYYGGDWYFNVWGAGTLVTVSSASVAAPSVFIFPPSDEQLKSGTASVECLLNNFYPREAKVQWKVDNALQSGNSQESVTEQDSKDSTYSLSSTLTLSKADYEKHKVYACEVTHQGLSSPVTKSFNRGEC
With B1, the Kd is 305 nM in the experiment with cynomolgus monkey CD32a [1]; 218 nM in the experiment with cynomolgus monkey CD32b [2]; under 0.02 nM in the experiment with cynomolgus monkey CD64 [3]; 4 nM with cynomolgus monkey CD32a [4]; 3.4 nM with cynomolgus monkey CD32b [5]; under 0.02 nM with cynomolgus monkey CD64 [6].

B2: Rituximab (antibody)
VH: not shown
VL: QIVLSQSPAILSASPGEKVTMTCRASSSVSYIHWFQQKPGSSPKPWIYATSNLASGVPVRFSGSGSGTSYSLTISRVEAEDAATYYCQQWTSNPPTFGGGTKLEIKRTVAAPSVFIFPPSDEQLKSGTASVVCLLNNFYPREAKVQWKVDNALQSGNSQESVTEQDSKDSTYSLSSTLTLSKADYEKHKVYACEVTHQGLSSPVTKSFNRGEC
B2 returned a Kd with cynomolgus monkey CD64 [3] of under 0.02 nM.

B3: Tafasitamab (antibody, human IgG1, kappa)
heavy: EVQLVESGGGLVKPGGSLKLSCAASGYTFTSYVMHWVRQAPGKGLEWIGYINPYNDGTKYNEKFQGRVTISSDKSISTAYMELSSLRSEDTAMYYCARGTYYYGTRVFDYWGQGTLVTVSSASTKGPSVFPLAPSSKSTSGGTAALGCLVKDYFPEPVTVSWNSGALTSGVHTFPAVLQSSGLYSLSSVVTVPSSSLGTQTYICNVNHKPSNTKVDKKVEPKSCDKTHTCPPCPAPELLGGPDVFLFPPKPKDTLMISRTPEVTCVVVDVSHEDPEVQFNWYVDGVEVHNAKTKPREEQFNSTFRVVSVLTVVHQDWLNGKEYKCKVSNKALPAPEEKTISKTKGQPREPQVYTLPPSREEMTKNQVSLTCLVKGFYPSDIAVEWESNGQPENNYKTTPPMLDSDGSFFLYSKLTVDKSRWQQGNVFSCSVMHEALHNHYTQKSLSLSPG
light: DIVMTQSPATLSLSPGERATLSCRSSKSLQNVNGNTYLYWFQQKPGQSPQLLIYRMSNLNSGVPDRFSGSGSGTEFTLTISSLEPEDFAVYYCMQHLEYPITFGAGTKLEIKRTVAAPSVFIFPPSDEQLKSGTASVVCLLNNFYPREAKVQWKVDNALQSGNSQESVTEQDSKDSTYSLSSTLTLSKADYEKHKVYACEVTHQGLSSPVTKSFNRGEC
In the case of B3, the Kd with cynomolgus monkey CD32a [1] is 76.2 nM; with cynomolgus monkey CD32b [2], 53 nM; with cynomolgus monkey CD64 [3], under 0.02 nM; in the experiment with cynomolgus monkey CD32a [4], 181 nM; with cynomolgus monkey CD32b [5], 152 nM; with cynomolgus monkey CD64 [6] it was 1.8 nM.
